Tests used:
[1] = molecular target: T1, Ku70/Ku80 heterodimer (Ku antigen) (Mus musculus, UniProt P23475;P27641 P23475:2-608,P27641:1-732); assay: competition; unlabeled 0.1-0.4 ug displaces labeled ds-ISS-ODN
Protocol: (§1) To verify the binding specificity of the Ku protein to ISS-ODN, inhibition studies were performed using cold ss or ds ISS or mutated (M, i.e., control) ODNs. Ten μg of fraction 20 from the affinity column were incubated with [³²P]-labeled ISS-ODN in the presence of unlabeled (0.1, 0.2 and 0.4 μg, respectively) ss-ISS-ODN (lanes 3-5), ds-ISS-ODN (lanes 7-9), ss-M-ODN (lanes 11-13) or ds-M-ODN (lanes 15-17).

[2] = molecular target: T1, Ku70/Ku80 heterodimer (Ku antigen); assay: competition; no significant competition at 0.1-0.4 ug
Protocol: as §1

T1 sequence (P23475 2-608, chain 1 of 2): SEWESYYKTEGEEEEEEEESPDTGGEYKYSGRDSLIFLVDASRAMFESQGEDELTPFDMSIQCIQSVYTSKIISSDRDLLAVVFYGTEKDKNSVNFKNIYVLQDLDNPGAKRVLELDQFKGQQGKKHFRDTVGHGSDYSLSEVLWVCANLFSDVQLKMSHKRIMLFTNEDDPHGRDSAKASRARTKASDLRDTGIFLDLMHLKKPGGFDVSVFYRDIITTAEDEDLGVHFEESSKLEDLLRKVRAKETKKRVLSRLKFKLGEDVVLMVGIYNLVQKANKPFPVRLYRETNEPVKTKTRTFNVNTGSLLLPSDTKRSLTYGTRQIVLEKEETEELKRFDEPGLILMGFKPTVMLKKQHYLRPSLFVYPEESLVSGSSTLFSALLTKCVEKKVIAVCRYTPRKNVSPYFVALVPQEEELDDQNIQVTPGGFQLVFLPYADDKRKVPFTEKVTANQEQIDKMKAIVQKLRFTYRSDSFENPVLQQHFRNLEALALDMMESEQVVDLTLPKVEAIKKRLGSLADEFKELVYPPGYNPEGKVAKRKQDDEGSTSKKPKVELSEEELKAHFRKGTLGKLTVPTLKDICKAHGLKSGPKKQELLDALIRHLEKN
T1 sequence (P27641 whole entry, chain 2 of 2): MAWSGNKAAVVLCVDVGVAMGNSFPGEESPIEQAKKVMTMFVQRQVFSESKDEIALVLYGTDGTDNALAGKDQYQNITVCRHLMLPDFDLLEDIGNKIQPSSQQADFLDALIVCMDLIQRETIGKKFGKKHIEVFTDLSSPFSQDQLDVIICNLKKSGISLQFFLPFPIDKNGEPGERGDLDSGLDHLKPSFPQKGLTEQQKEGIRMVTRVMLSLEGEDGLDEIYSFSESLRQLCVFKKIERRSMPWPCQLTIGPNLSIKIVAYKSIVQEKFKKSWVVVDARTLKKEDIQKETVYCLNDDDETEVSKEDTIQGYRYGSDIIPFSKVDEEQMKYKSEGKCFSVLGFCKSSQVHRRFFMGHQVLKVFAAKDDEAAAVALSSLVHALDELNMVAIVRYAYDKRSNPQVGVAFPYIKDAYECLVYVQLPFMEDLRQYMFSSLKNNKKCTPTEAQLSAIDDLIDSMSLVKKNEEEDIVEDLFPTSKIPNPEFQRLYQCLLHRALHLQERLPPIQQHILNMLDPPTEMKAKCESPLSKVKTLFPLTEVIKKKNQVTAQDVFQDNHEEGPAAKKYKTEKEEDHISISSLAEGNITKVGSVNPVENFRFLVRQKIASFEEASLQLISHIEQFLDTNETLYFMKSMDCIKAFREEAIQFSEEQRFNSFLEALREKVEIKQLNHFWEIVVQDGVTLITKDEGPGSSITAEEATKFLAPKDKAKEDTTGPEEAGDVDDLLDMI

Row | Binder | binding result [1] | binding result [2]
1 | TGACTGTGAACGTTCGAGATGA (ssDNA) [ss-ISS-ODN] | binds | 
2 | TGACTGTGAACCTTAGAGATGA (ssDNA) [ss-M-ODN] |  | no binding

— patent US20030176373, “Agents that modulate DNA-PK activity and methods of use thereof” (published 2003)
